Experimental data reported in publication PMC11503464, “Copper-61 is an advantageous alternative to gallium-68 for PET imaging of somatostatin receptor-expressing tumors: a head-to-head comparative preclinical study” (Frontiers in Nuclear Medicine, 2024).

Experiments:
in vivo [1] = assay: in vivo; parameters: species or system mice; settings: BALB/c, mouse, total radioactivity
Experimental: (§1) [^64Cu]CuCl2 was provided by the University Hospital Tübingen, Germany. […] OLINDA/EXM 1.0 was used to integrate the fitted time-activity curves and to estimate the organ and effective doses using the whole-body adult female model. For all the calculations, the assumption was made that the mouse biodistribution, determined as the %IA/organ, was the same as the human biodistribution. The dosimetry estimates were performed as previously described ([14]).

HEK-SST2 xenografts = settings: female, athymic nude-Foxn1^nu/Foxn1^+, mouse, in vivo, 200 pmol, 1 h
HEK-SST2 cells [2] = assay: Cellular uptake and distribution on intact HEK-SST2 cells; type: cell-based, human; settings: specific uptake, after 4 h at 37°C
Experimental: At the defined time points, the medium was removed, and the cells were washed twice with ice-cold PBS. The cells were then treated twice for 5 min with ice-cold glycine solution (0.05 M, pH 2.8) to detach the cell membrane-bound fraction (acid released). Afterward, the cells containing the internalized fraction were detached using NaOH 1 M at 37°C and collected for measurement. [^68Ga]Ga-DOTA-TOC was evaluated as a reference.

[3] = type: physicochemical
Experimental: Briefly, the radiotracer (10 µl, 1 µM) was added to 1 ml of a 1:1 pre-saturated mixture of 1-octanol and phosphate-buffered saline (PBS pH 7.4). The solution was vortexed for 30 min and then centrifuged at 3,000 rpm to achieve phase separation. Aliquots of 0.1 ml from each phase were collected and measured in a γ-counter. The distribution coefficient was calculated as the average of the logarithmic values (n = 3) of the ratio between the radioactivity in the organic and PBS phases. [^68Ga]Ga-DOTA-TOC was used as a reference.

[4] = in vivo; cited from earlier work
[5] = parameters: species or system mice; settings: mouse, in vivo
Experimental: as §1

HEK-SST2 cells [6] = assay: Efflux from HEK-SST2 cells; type: cell-based, human
Experimental: The efflux was studied after 1 h incubation of the cells with the radiotracer at 37°C and the removal of the unbound fraction and the cell membrane-bound fraction, as described above (acid-wash). The cells were then incubated with fresh medium at 37°C either alone or with a competitor (1,000-fold excess of DOTA-TOC, 2.5 µM/well) for 10, 20, 30, 45, 60, 90, 120, 150, 180, and 240 min. At each time point, the efflux (or retention) was measured after the removal of the medium without or with the competitor and replacement with fresh pre-warmed (37°C) medium alone or with the competitor. At the end of the experiment, the cells were detached using 1 M NaOH at 37°C and collected to determine the remaining cell-associated radiotracer.

[7] = Stability of labeling solutions at room temperature by radio-HPLC; type: physicochemical; settings: labeling solution stored at room temperature
Experimental: An aliquot of DOTA-TOC or NODAGA-TOC (3–6 nmol, 1 mg/ml in TraceSelect water) was diluted in 0.25–0.30 ml ammonium acetate (0.5 M, pH 8), followed by the addition of [^61Cu]CuCl2 (30–150 MBq). The reaction mixture was incubated for 15 min at 95°C (DOTA-TOC) or at room temperature (NODAGA-TOC). The pH of the reaction mixture was between 5 and 6. Quality control was performed on a Shimadzu 2020 HPLC system connected to a Berthold radio detector (Flow Star 513).

in vivo [8] = settings: female, athymic nude-Foxn1^nu/Foxn1^+, mouse, 200 pmol, total radioactivity

C[C@@H](O)[C@@H]1NC(=O)[C@H](CCCCN)NC(=O)[C@@H](Cc2c[nH]c3ccccc23)NC(=O)[C@H](Cc2ccc(O)cc2)NC(=O)[C@@H](NC(=O)[C@@H](Cc2ccccc2)NC(=O)CCC(C(=O)O)N2CCN(CC(=O)O)CCN(CC(=O)O)CC2)CSSC[C@@H](C(=O)N[C@H](CO)[C@@H](C)O)NC1=O (some centres unmarked) [[64Cu]Cu-NODAGA-TOC, metal not drawn]
tissue uptake at 12 h (in vivo [1]; Adrenal uptake): 0.32 ± 0.2 %ID/g
tissue uptake at 24 h (in vivo [1]; Adrenal uptake): 0.18 ± 0.1 %ID/g
tissue uptake at 12 h (in vivo [1]; Femur uptake): 0.11 ± 0.04 %ID/g
tissue uptake at 12 h (in vivo [1]; Intestine uptake): 0.57 ± 0.07 %ID/g
tissue uptake at 24 h (in vivo [1]; Intestine uptake): 0.31 ± 0.05 %ID/g
tissue uptake at 12 h (in vivo [1]; Kidneys uptake): 2.46 ± 0.85 %ID/g
tissue uptake at 24 h (in vivo [1]; Kidneys uptake): 0.66 ± 0.15 %ID/g
tissue uptake at 12 h (in vivo [1]; Liver uptake): 0.37 ± 0.09 %ID/g
tissue uptake at 24 h (in vivo [1]; Liver uptake): 0.26 ± 0.02 %ID/g
tissue uptake at 12 h (in vivo [1]; Lung uptake): 0.51 ± 0.12 %ID/g
tissue uptake at 24 h (in vivo [1]; Lung uptake): 0.27 ± 0.09 %ID/g
tissue uptake at 12 h (in vivo [1]; Pancreas uptake): 0.14 ± 0.03 %ID/g
tissue uptake at 12 h (in vivo [1]; Pituitary uptake): 0.48 ± 0.25 %ID/g
tissue uptake at 24 h (in vivo [1]; Pituitary uptake): 0.43 ± 0.29 %ID/g
tissue uptake at 12 h (in vivo [1]; Stomach uptake): 0.75 ± 0.19 %ID/g
tissue uptake at 24 h (in vivo [1]; Stomach uptake): 0.26 ± 0.04 %ID/g

C[C@@H](O)[C@@H]1NC(=O)[C@H](CCCCN)NC(=O)[C@@H](Cc2c[nH]c3ccccc23)NC(=O)[C@H](Cc2ccc(O)cc2)NC(=O)[C@@H](NC(=O)[C@@H](Cc2ccccc2)NC(=O)CN2CCN(CC(=O)O)CCN(CC(=O)O)CCN(CC(=O)O)CC2)CSSC[C@@H](C(=O)N[C@H](CO)[C@@H](C)O)NC1=O [[^68Ga]Ga-DOTA-TOC] [[^68Ga]Ga-DOTA-Tyr^3-octreotide, metal not drawn]
Adrenal uptake (HEK-SST2 xenografts): 2.57 ± 0.78 %IA/g
Blood uptake (HEK-SST2 xenografts): 0.63 ± 0.09 %IA/g
Bone uptake (HEK-SST2 xenografts): 0.49 ± 0.07 %IA/g
Heart uptake (HEK-SST2 xenografts): 0.27 ± 0.03 %IA/g
Intestine uptake (HEK-SST2 xenografts): 1.39 ± 0.28 %IA/g
Kidneys uptake (HEK-SST2 xenografts): 8.37 ± 0.84 %IA/g
Liver uptake (HEK-SST2 xenografts): 0.58 ± 0.07 %IA/g
Lung uptake (HEK-SST2 xenografts): 1.68 ± 0.32 %IA/g
Pancreas uptake (HEK-SST2 xenografts): 4.77 ± 1.16 %IA/g
Pituitary uptake (HEK-SST2 xenografts): 3.29 ± 0.63 %IA/g
SST2-tumor uptake (HEK-SST2 xenografts): 6.64 ± 1.11 %IA/g
Stomach uptake (HEK-SST2 xenografts): 3.73 ± 0.36 %IA/g
Cellular uptake (surface bound + internalized) (HEK-SST2 cells [2]): 79.0 ± 3.1%
log D(O/PBS pH 7.4) ([3]; pH 7.4): −3.18 ± 0.11
Effective dose [4]: 0.021-0.0257 mSv/MBq

C[C@@H](O)[C@@H]1NC(=O)[C@H](CCCCN)NC(=O)[C@@H](Cc2c[nH]c3ccccc23)NC(=O)[C@H](Cc2ccc(O)cc2)NC(=O)[C@@H](NC(=O)[C@@H](Cc2ccccc2)NC(=O)CCC(C(=O)O)N2CCN(CC(=O)O)CCN(CC(=O)O)CC2)CSSC[C@@H](C(=O)N[C@H](CO)[C@@H](C)O)NC1=O (some centres unmarked) [[^61Cu]Cu-NODAGA-TOC, metal not drawn]
Total absorbed dose, Adrenals [5]: 6.77 × 10^−3 mGy/MBq
Total absorbed dose, Brain [5]: 1.53 × 10^−5 mGy/MBq
Total absorbed dose, Breasts [5]: 2.14 × 10^−4 mGy/MBq
Total absorbed dose, Gallbladder wall [5]: 2.14 × 10^−3 mGy/MBq
Total absorbed dose, Heart wall [5]: 1.02 × 10^−3 mGy/MBq
Total absorbed dose, Kidneys [5]: 9.65 × 10^−2 mGy/MBq
Total absorbed dose, LLI wall [5]: 8.28 × 10^−4 mGy/MBq
Total absorbed dose, Liver [5]: 4.06 × 10^−3 mGy/MBq
Total absorbed dose, Lungs [5]: 1.67 × 10^−3 mGy/MBq
Total absorbed dose, Muscle [5]: 5.63 × 10^−4 mGy/MBq
Total absorbed dose, Osteogenic cells [5]: 6.57 × 10^−4 mGy/MBq
Total absorbed dose, Ovaries [5]: 1.19 × 10^−3 mGy/MBq
Total absorbed dose, Pancreas [5]: 2.23 × 10^−2 mGy/MBq
Total absorbed dose, Red marrow [5]: 1.07 × 10^−3 mGy/MBq
Total absorbed dose, Skin [5]: 2.42 × 10^−4 mGy/MBq
Total absorbed dose, Small intestine [5]: 1.12 × 10^−2 mGy/MBq
Total absorbed dose, Spleen [5]: 3.49 × 10^−3 mGy/MBq
Total absorbed dose, Stomach wall [5]: 5.34 × 10^−3 mGy/MBq
Total absorbed dose, Thymus [5]: 1.98 × 10^−4 mGy/MBq
Total absorbed dose, Thyroid [5]: 5.27 × 10^−5 mGy/MBq
Total absorbed dose, Total body [5]: 1.27 × 10^−3 mGy/MBq
Total absorbed dose, ULI wall [5]: 2.14 × 10^−3 mGy/MBq
Total absorbed dose, Urinary bladder wall [5]: 3.48 × 10^−4 mGy/MBq
Total absorbed dose, Uterus [5]: 1.03 × 10^−3 mGy/MBq
Efflux plateau in the absence of a competitor (HEK-SST2 cells [6]; after 2 h, 37°C, no further increase at 4 h): approximately 40%
Efflux with competitor (HEK-SST2 cells [6]; after 4 h at 37°C, DOTA-TOC (competitor) added to the medium): 80%
Cellular uptake (surface bound + internalized) (HEK-SST2 cells [2]): 70.9 ± 3.5%
Radiochemical purity (%) 2 h ([7]; 2 h after end of synthesis): 98 ± 1%
Radiochemical purity (%) 4 h ([7]; 4 h after end of synthesis): 97 ± 1%
logD ([3]; pH 7.4, log D(O/PBS pH 7.4)): -2.6 ± 0.24
tissue uptake at 1 h (in vivo [8]; Adrenal uptake): 0.99 ± 0.17 %ID/g
tissue uptake at 4 h (in vivo [8]; Adrenal uptake): 0.67 ± 0.26 %ID/g
tissue uptake at 1 h (in vivo [8]; Blood uptake): 0.22 ± 0.04 %ID/g
tissue uptake at 4 h (in vivo [8]; Blood uptake): 0.04 ± 0.02 %ID/g
tissue uptake at 1 h (in vivo [8]; Bone uptake): 0.46 ± 0.17 %ID/g
tissue uptake at 4 h (in vivo [8]; Bone uptake): 0.31 ± 0.11 %ID/g
tissue uptake at 1 h (in vivo [8]; Heart uptake): 0.16 ± 0.04 %ID/g
tissue uptake at 4 h (in vivo [8]; Heart uptake): 0.07 ± 0.03 %ID/g
tissue uptake at 1 h (in vivo [8]; Intestine uptake): 0.92 ± 0.12 %ID/g
tissue uptake at 4 h (in vivo [8]; Intestine uptake): 0.65 ± 0.23 %ID/g
tissue uptake at 1 h (in vivo [8]; Kidneys uptake): 12.5 ± 2.25 %ID/g
tissue uptake at 4 h (in vivo [8]; Kidneys uptake): 4.36 ± 0.92 %ID/g
tissue uptake at 1 h (in vivo [8]; Liver uptake): 0.29 ± 0.04 %ID/g
tissue uptake at 4 h (in vivo [8]; Liver uptake): 0.27 ± 0.09 %ID/g
tissue uptake at 1 h (in vivo [8]; Lung uptake): 1.09 ± 0.2 %ID/g
tissue uptake at 4 h (in vivo [8]; Lung uptake): 0.51 ± 0.24 %ID/g
tissue uptake at 1 h (in vivo [8]; Muscle uptake): 0.16 ± 0.06 %ID/g
tissue uptake at 4 h (in vivo [8]; Muscle uptake): 0.07 ± 0.04 %ID/g
tissue uptake at 1 h (in vivo [8]; Pancreas uptake): 2.59 ± 0.49 %ID/g
tissue uptake at 4 h (in vivo [8]; Pancreas uptake): 0.6 ± 0.21 %ID/g
tissue uptake at 1 h (in vivo [8]; Pituitary uptake): 3.8 ± 1.35 %ID/g
tissue uptake at 4 h (in vivo [8]; Pituitary uptake): 2.97 ± 0.95 %ID/g
tissue uptake at 1 h (in vivo [8]; SST2-tumor uptake): 8.88 ± 3.19 %ID/g
tissue uptake at 4 h (in vivo [8]; SST2-tumor uptake): 7.39 ± 1.36 %ID/g
tissue uptake at 1 h (in vivo [8]; Spleen uptake): 0.22 ± 0.05 %ID/g
tissue uptake at 4 h (in vivo [8]; Spleen uptake): 0.1 ± 0.04 %ID/g
tissue uptake at 1 h (in vivo [8]; Stomach uptake): 2.34 ± 0.43 %ID/g
tissue uptake at 4 h (in vivo [8]; Stomach uptake): 1.22 ± 0.25 %ID/g
